B1: ANKRD17 (parent)
chain: EVLRRLTSSVSCALDEAAAALTRM
B2: RHOBTB1 (parent)
chain: TFGDHHKDRRFAYGRSDVVVLCFS

Variants of: B1
Assay: protein stability index of a GFP-peptide fusion (GPS, HEK-293T) (PSI 1-6); higher = more stable
Conditions: c terminus: a fixed tail appended
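Note: lentivirally expressed fusions sorted by FACS into six bins by GFP to DsRed ratio, PSI derived from sequencing read proportions per bin multiplied by bin number.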

Protein stability index, by site and new letter:
A19: L 2.35; H 1.78; T 2.29; S 2.16
S11: P 2.79; D 2.18; G 1.03; A 1.43; T 2.42; F 1.12
S8: F 4.21; P 1.73; H 2.09
L3: P 3.4; Y 2.44; A 1.83; T 1.55
T22: H 3.03; F 2.21; C 2.1; Q 3
A17: S 2.16; L 2.34; D 1.46; Y 2.49; C 2.59; M 1.85
S9: T 1.66; Q 2.21; Y 1.58; F 2.38; C 1.87; A 2.11; D 1.65
L14: E 3.61; K 1.79; F 1.23; M 2.81; Y 2.27; Q 2.48
A20: K 2.69; V 1.91
T7: A 2.96; N 1.16; R 3; I 2.06; H 1.17; Y 2.2; E 2.81; D 1.81; S 2.09
M24: C 2.33; W 3.27; F 2.44; T 3.53; Q 2.2; R 2.72; V 1.07; D 1.43
R23: H 1.95; P 2.15; E 2.64; A 2.91; K 1.21
A13: K 2.55; M 1.6; C 2.58; S 1.34; E 2.34; H 2.42; F 2.2; P 1.37; L 1.38
L21: W 1.6; H 1.89; F 1.65; V 2.04
R4: Y 2.34; I 1.04; G 2.19
V10: W 1.4; D 3.61; R 1.07; E 1.81; A 3.08; I 2.13
E16: N 3; I 1.97; T 1.88; L 3.18; Q 2.56; C 2.46
A18: W 1.64; F 1.94; V 1.8; Q 2.4; P 2.72; D 1.89; Y 1.69
D15: A 1.35; E 2.2; H 1.97; M 3.36; R 1.85; Q 1.87
L6: C 2.38; E 3.9; S 1.73; P 2.38; Y 2.28; W 2
V2: R 2.6; S 2.59; T 2.79; C 2.34; H 3.64
E1: Q 3.07; C 1.94; D 1.97; M 1.38; A 2.07
R5: H 2.23; D 3.56; S 2.18; P 2.02; W 1.02; T 1; F 1.68; M 2.05; N 2.35
C12: P 1.91; W 2.27; F 1.78; H 4.25

Variants of: B2
Assay: as above
Conditions: c terminus: a fixed tail appended

Protein stability index, by site and new letter:
H6: Q 2.14; C 1.2; E 3; T 1.94; L 3.15; K 2.33
S16: Q 2.83; A 4.21; P 3.17; D 2.52; M 2.96; I 1.57; Y 1.23; K 2.43
G14: N 2.25; D 2.49; V 3.71; R 2.76; S 1.75; E 1.99; T 3.19; F 3.41; P 3.26
K7: M 3.46; G 3.09; Q 2.38; C 2.42; T 3.37; D 2.76; Y 3.88
R9: D 3.4; E 2.75; V 3.55; Q 3.83; T 1.42; G 2.82; L 2.66; N 2.58; P 3
S24: N 1.65; F 2.84; Y 4.57; C 3.85; G 2.54; V 2.3
Y13: H 2.49; G 1.46; I 3.14; N 2.36; T 1.62; D 2.16; P 1.04; R 1.33; K 2.4; E 1.93
F2: S 1.02; W 2.28; D 2.19; E 1.31; H 1.85; K 2.65; C 3.44; M 1.81; I 2.17
A12: E 1.93; Q 2.33; R 2.98; I 3.53; K 1.46; Y 1.9; L 2.48; C 2.93; H 3.79
H5: A 2.25; P 3.97; Y 2.15; G 1.21; D 2.41
R15: T 2.11; N 1.84; A 2.04; D 2.36; V 4.25; E 1.75; Y 3.25; L 2.23
F11: H 2.37; D 1.78; I 2.38; K 1.35; E 1.49; A 1.69; Y 1.27; S 1.13; W 2.28; N 2.49
V19: H 2; Q 1.52; G 1.61; M 2.17; C 1.26; T 2.68; P 1.69; I 2.14; E 1.88; K 1.92
L21: G 2.23; K 2.34; E 2.79; C 1.85; T 2.14; H 1.9; A 1.62; F 2.07; M 2.78; V 2.86
D17: W 2.78; T 2.67; M 3.13; I 3.11; N 2.23; F 1.51; P 3.44; C 3.12
C22: L 2.42; T 1.3; A 1.72; W 2.73; F 3.21; E 2.2; G 2.21; K 2.17; P 2.21; D 2.32; Y 1.07
V18: W 2.21; M 2.06; L 3.53; N 1.57; P 1.58; Y 2.2; R 2.92; H 1.88; C 2.01
D4: E 3.4; W 3.1; P 2.46; T 2.54; Q 3.51
T1: K 2.48; E 2.06; Q 2.25; V 3.58; P 2.61
G3: I 2.42; E 2.98; P 2.48; S 2.45; R 1.52; D 2.11; N 1.98; A 1.83; V 3.29; W 2.33
V20: A 3.28; K 1.73; F 2.54; R 1.97; Q 1.7; M 1.44; G 2.05; D 2.62; P 2.61
F23: E 3.12; M 2.59; Y 2.22; D 3.1; I 1.41; H 2.6; G 2.47; T 1.68; P 2.16; L 1.42
D8: F 1.92; N 2.29; L 4.19; P 2.77; R 2.96; G 1.87; W 3.29
R10: T 2.93; C 2.7; M 1.76; H 2.59; S 3.52; E 1.47; I 1.96; V 2.19; Q 2.27; N 3.35
